The target of assay [1] is T1, His-tagged human dimeric FAP (recombinant FAP_ECD) (human, UniProt Q12884 27-760).
T1 construct: also called hu FAP ectodomain + poly-lys-tag + his6-tag
Kind of assay: SPR (Biacore T200), His-tagged dimeric huFAP ECD captured by anti-His, antibody as analyte, 1:1 fit (avidity). The protocol:
The capacity of the bispecific constructs to bind human FAP was assessed by surface plasmon resonance (SPR). All SPR experiments were performed on a BIACORE® T200 (BIACORE®) at 25° C. with HBS-EP as running buffer (0.01 M HEPES pH 7.4, 0.15 M NaCl, 3 mM EDTA, 0.005% Surfactant P20, (BIACORE®).
His-tagged human dimeric FAP (recombinant FAP_ECD) was captured on a CM5 chip (GE Healthcare) immobilized with anti-His antibody (Qiagen Cat. No. 34660) by injection of 500 nM huFAP for 60 s at a flow rate of 10 uL/min, 10 nM murine FAP for 20 s at a flow rate of 20 uL/min and 10 nM cynoFAP for 20 s at a flow rate of 20 uL/min. Immobilization levels for the anti-His antibody of up to 18000 resonance units (RU) were used. Following the capture step, the bispecific antibodies as well as control molecules were immediately passed over the chip surface at a concentration ranging from 0.78-100 nM with a flow rate of […] for 280 s and a dissociation phase of 180 s. Bulk refractive index differences were corrected for by subtracting the response obtained in a reference flow cell, where no FAP was immobilized. Avidity was determined using the Langmuir 1:1 curve fitting. For bivalent binding the same 1:1 fitting was used leading to an apparent KD value.
(Surface plasmon resonance follows binding to a sensor surface in real time, without labels.)

Assay [2] deals with T2, human fibroblast activation protein (huFAP) (human, UniProt Q12884 1-760).
T2 construct: expressed on transfected NIH/3T3-huFAP clone 19 cells; also called human FAP
The experiment in a line: flow cytometry, NIH/3T3-huFAP clone 19 cells, PE anti-human Fc F(ab')2. The protocol:
(§1) NIH/3T3-huFAP clone 19 and NIH/3T3-mFAP clone 26 were generated by the transfection of the mouse embryonic fibroblast NIH/3T3 cell line (ATCC CRL-1658) with the expression vector pETR4921 to express under 1.5 μg/mL Puromycin selection huFAP or mFAP, respectively.
(§2) NIH/3T3-huFAP, NIH/3T3-mFAP or NIH/3T3-wt cells were cultured with 1× Dulbecco's Modified Eagle's Medium (DMEM) (Gibco, Cat. No. 42430-025) supplemented with 10% Fetal Bovine Serum (FBS) (life technologies, Cat. No. 16140, Lot No. 1797306A). For the NIH/3T3-huFAP and NIH/3T3-mFAP cells 1.5 μg/mL Puromycin (Gibco, Cat. No. A11138-03) was added to the medium for selection of FAP-expressing cells. NIH/3T3 cells were removed from the plate by using enzyme-free Cell Dissociation Buffer (Gibco, Cat. No. 13151014). 0.3×10⁵ NIH/3T3-huFAP clone 19, NIH/3T3-mFAP clone 26 or NIH/3T3-wt were added in 200 μl of 1×DMEM 10% FBS to each well of a round-bottom 96-well plate (Greiner Bio-One, CELLSTAR®, Cat. No. 650185). Plates were centrifuged 5 minutes at 1700 rpm and supernatants were flicked off. Cells were washed once with 200 μL of 4° C. cold FACS buffer (eBioscience, Cat. No. 00-4222-26). All samples were resuspended in 50 μL/well of 4° C. cold FACS buffer containing the bispecific antigen binding molecules (primary antibody) or isotype control antibody DP47 at the indicated range of concentrations (in duplicates) and incubated for 120 minutes at 4° C. Afterwards the cells were washed three times with 200 μL 4° C. cold FACS buffer. Cells were further stained with 25 μL/well of 4° C. cold secondary antibody solution (1:50 dilution of secondary antibody) containing R-Phycoerythrin (PE) conjugated AffiniPure F(ab′)₂ Fragment Goat Anti-Human IgG, Fcγ Fragment Specific (Jackson ImmunoResearch, Cat. No. 109-116-098) and incubated for 60 minutes at 4° C. in the dark. Cells were washed with 200 μl FACS buffer and resuspended in 85 μL/well FACS-buffer containing 0.2 μg/mL DAPI (Roche, Cat. No. 10236276001) and acquired the same day using 5-laser LSR-Fortessa (BD Bioscience with DIVA software). Data analysis was performed using the FlowJo version 10 software (FlowJo LLC).
(In general: Flow cytometry measures light scatter and fluorescence of single cells or particles in a stream.)

For assay [3], the target named is T3, mouse fibroblast activation protein (mFAP) (mouse, UniProt P97321 1-761).
T3 construct: expressed on transfected NIH/3T3-mFAP clone 26 cells; also called murine FAP; mouse FAP
T3 sequence (P97321 whole entry): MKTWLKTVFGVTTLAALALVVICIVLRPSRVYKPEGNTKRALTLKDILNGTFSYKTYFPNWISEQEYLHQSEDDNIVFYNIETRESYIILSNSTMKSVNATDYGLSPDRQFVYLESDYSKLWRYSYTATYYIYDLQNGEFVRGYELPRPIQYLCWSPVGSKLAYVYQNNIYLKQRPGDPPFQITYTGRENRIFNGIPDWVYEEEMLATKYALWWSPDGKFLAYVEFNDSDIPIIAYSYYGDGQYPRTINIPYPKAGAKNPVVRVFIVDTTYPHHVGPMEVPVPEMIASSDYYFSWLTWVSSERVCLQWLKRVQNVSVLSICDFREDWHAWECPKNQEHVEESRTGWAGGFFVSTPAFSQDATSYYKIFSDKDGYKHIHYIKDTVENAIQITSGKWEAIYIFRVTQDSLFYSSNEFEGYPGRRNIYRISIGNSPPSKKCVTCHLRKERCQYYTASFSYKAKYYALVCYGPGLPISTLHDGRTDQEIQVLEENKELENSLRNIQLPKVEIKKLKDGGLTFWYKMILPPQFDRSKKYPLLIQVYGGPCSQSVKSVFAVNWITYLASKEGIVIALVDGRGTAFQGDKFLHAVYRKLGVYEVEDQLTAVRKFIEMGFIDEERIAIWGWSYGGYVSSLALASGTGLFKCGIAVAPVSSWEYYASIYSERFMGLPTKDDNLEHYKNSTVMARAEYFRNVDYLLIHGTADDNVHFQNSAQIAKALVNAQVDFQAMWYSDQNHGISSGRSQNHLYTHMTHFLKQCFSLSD
The experiment in a line: flow cytometry on NIH/3T3-mFAP cells (3T3_mFAP), PE-labelled anti-human IgG Fcgamma F(ab')2 secondary, MFI baseline corrected. The protocol: as §1, §2

Numbering of substitutions follows the chain as printed.

Consider 5 molecules from US20250179205A1 (Hoffmann-La Roche, published 2025).

B1: 4B9 IgG1 (antibody, V domains shown)
VH: EVQLLESGGGLVQPGGSLRLSCAASGFTFSSYAMSWVRQAPGKGLEWVSAIIGSGASTYYADSVKGRFTISRDNSKNTLYLQMNSLRAEDTAVYYCAKGWFGGFNYWGQGTLVTVSS
VL: EIVLTQSPGTLSLSPGERATLSCRASQSVTSSYLAWYQQKPGQAPRLLINVGSRRATGIPDRFSGSGSGTDFTLTISRLEPEDFAVYYCQQGIMLPPTFGQGTKVEIK
notes: IgG1; also called Control; FAP(4B9)
For the molecule B1, in assay [1], the Kd worked out at 0.08 nM, the koff was determined as 0.000172 s⁻¹ and the kon stood at 2.19e+06 M⁻¹ s⁻¹.

B2: P1AD4520 or P1AD9139 mu CD40 (FGK4.5) × FAP (28H1) (4 + 1) (bispecific antibody, mouse IgG1, kappa)
heavy 1: EVQLVESDGGLVQPGRSLKLPCAASGFTFSDYYMAWVRQAPTKGLEWVASISYDGSSTYYRDSVKGRFTISRDNAKSTLYLQMDSLRSEDTATYYCGRHSSYFDYWGQGVMVTVSSAKTTPPSVYPLAPGSAAQTNSMVTLGCLVKGYFPEPVTVTWNSGSLSSGVHTFPAVLQSDLYTLSSSVTVPSSTWPSQTVTCNVAHPASSTKVDKKIVPRDCGGGGSGGGGSEVQLVESDGGLVQPGRSLKLPCAASGFTFSDYYMAWVRQAPTKGLEWVASISYDGSSTYYRDSVKGRFTISRDNAKSTLYLQMDSLRSEDTATYYCGRHSSYFDYWGQGVMVTVSSAKTTPPSVYPLAPGSAAQTNSMVTLGCLVKGYFPEPVTVTWNSGSLSSGVHTFPAVLQSDLYTLSSSVTVPSSTWPSQTVTCNVAHPASSTKVDKKIVPRDCGCKPCICTVPEVSSVFIFPPKPKDVLTITLTPKVTCVVVAISKDDPEVQFSWFVDDVEVHTAQTKPREEQINSTFRSVSELPIMHQDWLNGKEFKCRVNSAAFGAPIEKTISKTKGRPKAPQVYTIPPPKKQMAKDKVSLTCMITNFFPEDITVEWQWNGQPAENYKNTQPIMKTDGSYFVYSKLNVQKSNWEAGNTFTCSVLHEGLHNHHTEKSLSHSPGGGGGSGGGGSGGGGSGGGGSEVQLLESGGGLVQPGGSLRLSCAASGFTFSSHAMSWVRQAPGKGLEWVSAIWASGEQYYADSVKGRFTISRDNSKNTLYLQMNSLRAEDTAVYYCAKGWLGNFDYWGQGTLVTVSS
heavy 2: EVQLVESDGGLVQPGRSLKLPCAASGFTFSDYYMAWVRQAPTKGLEWVASISYDGSSTYYRDSVKGRFTISRDNAKSTLYLQMDSLRSEDTATYYCGRHSSYFDYWGQGVMVTVSSAKTTPPSVYPLAPGSAAQTNSMVTLGCLVKGYFPEPVTVTWNSGSLSSGVHTFPAVLQSDLYTLSSSVTVPSSTWPSQTVTCNVAHPASSTKVDKKIVPRDCGGGGSGGGGSEVQLVESDGGLVQPGRSLKLPCAASGFTFSDYYMAWVRQAPTKGLEWVASISYDGSSTYYRDSVKGRFTISRDNAKSTLYLQMDSLRSEDTATYYCGRHSSYFDYWGQGVMVTVSSAKTTPPSVYPLAPGSAAQTNSMVTLGCLVKGYFPEPVTVTWNSGSLSSGVHTFPAVLQSDLYTLSSSVTVPSSTWPSQTVTCNVAHPASSTKVDKKIVPRDCGCKPCICTVPEVSSVFIFPPKPKDVLTITLTPKVTCVVVAISKDDPEVQFSWFVDDVEVHTAQTKPREEQINSTFRSVSELPIMHQDWLNGKEFKCRVNSAAFGAPIEKTISKTKGRPKAPQVYTIPPPKEQMAKDKVSLTCMITNFFPEDITVEWQWNGQPAENYDNTQPIMDTDGSYFVYSDLNVQKSNWEAGNTFTCSVLHEGLHNHHTEKSLSHSPGGGGGSGGGGSGGGGSGGGGSEIVLTQSPGTLSLSPGERATLSCRASQSVSRSYLAWYQQKPGQAPRLLIIGASTRATGIPDRFSGSGSGTDFTLTISRLEPEDFAVYYCQQGQVIPPTFGQGTKVEIK
light: DTVLTQSPALAVSPGERVTISCRASDSVSTLMHWYQQKPGQQPKLLIYLASHLESGVPARFSGSGSGTDFTLTIDPVEADDTATYYCQQSWNDPWTFGGGTKLELKRADAAPTVSIFPPSSEQLTSGGASVVCFLNNFYPKDINVKWKIDGSERQNGVLNSWTDQDSKDSTYSMSSTLTLTKDEYERHNSYTCEATHKTSTSPIVKSFNRNEC
notes: murine surrogate, tetravalent for mouse CD40, monovalent for FAP (28H1); mouse IgG1 DAPG, DD/KK; also called 4 + 1 with C-terminal VH/VL fusion; muCD40-28H1
On to B2, for which, in assay [1], the Kd was 2.7 nM, the koff stood at 0.00155 s⁻¹ and the kon amounted to 576000 M⁻¹ s⁻¹.

B3: P1AA9641 CD40 × FAP (28H1) (2 + 1) (bispecific antibody, human IgG1, kappa, L234A L235A)
heavy 1: EVQLVESGGGLVQPGGSLRLSCAASGYSFTGYYIHWVRQAPGKGLEWVARVIPNAGGTSYNQKFKGRFTLSVDNSKNTAYLQMNSLRAEDTAVYYCAREGIYWWGQGTLVTVSSASTKGPSVFPLAPSSKSTSGGTAALGCLVKDYFPEPVTVSWNSGALTSGVHTFPAVLQSSGLYSLSSVVTVPSSSLGTQTYICNVNHKPSNTKVDKKVEPKSCDKTHTCPPCPAPEAAGGPSVFLFPPKPKDTLMISRTPEVTCVVVDVSHEDPEVKFNWYVDGVEVHNAKTKPREEQYNSTYRVVSVLTVLHQDWLNGKEYKCKVSNKALGAPIEKTISKAKGQPREPQVCTLPPSRDELTKNQVSLSCAVKGFYPSDIAVEWESNGQPENNYKTTPPVLDSDGSFFLVSKLTVDKSRWQQGNVFSCSVMHEALHNHYTQKSLSLSPGGGGGSGGGGSGGGGSGGGGSEIVLTQSPGTLSLSPGERATLSCRASQSVSRSYLAWYQQKPGQAPRLLIIGASTRATGIPDRFSGSGSGTDFTLTISRLEPEDFAVYYCQQGQVIPPTFGQGTKVEIK
heavy 2: not shown
light: DIQMTQSPSSLSASVGDRVTITCRSSQSLVHSNGNTFLHWYQQKPGKAPKLLIYTVSNRFSGVPSRFSGSGSGTDFTLTISSLQPEDFATYFCSQTTHVPWTFGQGTKVEIKRTVAAPSVFIFPPSDEQLKSGTASVVCLLNNFYPREAKVQWKVDNALQSGNSQESVTEQDSKDSTYSLSSTLTLSKADYEKHKVYACEVTHQGLSSPVTKSFNRGEC
notes: 28H1 VH and VL fused to the C-termini of the knob and hole heavy chains; also called CD40 × FAP 2 + 1; huCD40-28H1
In assay [2], B3 registered an EC50 of 33 nM. For the same molecule, the binding result in assay [3] is given as “binds”.

B4: P1AA9663 CD40 × FAP (28H1) (2 + 2) (bispecific antibody, human IgG1, kappa, L234A L235A)
heavy: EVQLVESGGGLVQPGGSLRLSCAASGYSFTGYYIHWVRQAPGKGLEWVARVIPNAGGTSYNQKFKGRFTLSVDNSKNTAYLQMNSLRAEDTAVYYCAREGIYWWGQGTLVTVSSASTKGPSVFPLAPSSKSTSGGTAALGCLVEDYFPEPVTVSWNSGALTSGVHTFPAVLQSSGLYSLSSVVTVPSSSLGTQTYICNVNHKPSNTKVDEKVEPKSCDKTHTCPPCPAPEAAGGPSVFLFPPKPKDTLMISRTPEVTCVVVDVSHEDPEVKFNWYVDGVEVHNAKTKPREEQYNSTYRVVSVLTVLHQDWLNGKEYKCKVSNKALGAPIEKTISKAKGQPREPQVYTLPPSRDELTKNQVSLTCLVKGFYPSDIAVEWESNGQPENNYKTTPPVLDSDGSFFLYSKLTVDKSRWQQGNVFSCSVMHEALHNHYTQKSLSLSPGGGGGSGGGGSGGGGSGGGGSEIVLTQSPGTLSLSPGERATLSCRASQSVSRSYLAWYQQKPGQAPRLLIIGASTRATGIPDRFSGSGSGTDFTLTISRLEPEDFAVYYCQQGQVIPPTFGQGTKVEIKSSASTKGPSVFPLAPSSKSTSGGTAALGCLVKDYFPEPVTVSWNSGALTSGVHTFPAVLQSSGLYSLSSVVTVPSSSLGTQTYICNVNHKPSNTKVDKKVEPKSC
light 1: B3 light with E128R, Q129K
light 2: EVQLLESGGGLVQPGGSLRLSCAASGFTFSSHAMSWVRQAPGKGLEWVSAIWASGEQYYADSVKGRFTISRDNSKNTLYLQMNSLRAEDTAVYYCAKGWLGNFDYWGQGTLVTVSSASVAAPSVFIFPPSDEQLKSGTASVVCLLNNFYPREAKVQWKVDNALQSGNSQESVTEQDSKDSTYSLSSTLTLSKADYEKHKVYACEVTHQGLSSPVTKSFNRGEC
notes: bivalent for CD40 and for FAP; also called CD40 × FAP 2 + 2; huCD40-28H1
In assay [2], B4 showed an EC50 of 3.65 nM. Also, the “EC50 (read off the curve)” value in assay [3] was roughly 4 nM.

B5: P1AD4453 CD40 × FAP (28H1) (4 + 1) (bispecific antibody, human IgG1, kappa, L234A L235A)
heavy 1: not shown
heavy 2: EVQLVESGGGLVQPGGSLRLSCAASGYSFTGYYIHWVRQAPGKGLEWVARVIPNAGGTSYNQKFKGRFTLSVDNSKNTAYLQMNSLRAEDTAVYYCAREGIYWWGQGTLVTVSSASTKGPSVFPLAPSSKSTSGGTAALGCLVKDYFPEPVTVSWNSGALTSGVHTFPAVLQSSGLYSLSSVVTVPSSSLGTQTYICNVNHKPSNTKVDKKVEPKSCDGGGGSGGGGSEVQLVESGGGLVQPGGSLRLSCAASGYSFTGYYIHWVRQAPGKGLEWVARVIPNAGGTSYNQKFKGRFTLSVDNSKNTAYLQMNSLRAEDTAVYYCAREGIYWWGQGTLVTVSSASTKGPSVFPLAPSSKSTSGGTAALGCLVKDYFPEPVTVSWNSGALTSGVHTFPAVLQSSGLYSLSSVVTVPSSSLGTQTYICNVNHKPSNTKVDKKVEPKSCDKTHTCPPCPAPEAAGGPSVFLFPPKPKDTLMISRTPEVTCVVVDVSHEDPEVKFNWYVDGVEVHNAKTKPREEQYNSTYRVVSVLTVLHQDWLNGKEYKCKVSNKALGAPIEKTISKAKGQPREPQVCTLPPSRDELTKNQVSLSCAVKGFYPSDIAVEWESNGQPENNYKTTPPVLDSDGSFFLVSKLTVDKSRWQQGNVFSCSVMHEALHNHYTQKSLSLSPGGGGGSGGGGSGGGGSGGGGSEIVLTQSPGTLSLSPGERATLSCRASQSVSRSYLAWYQQKPGQAPRLLIIGASTRATGIPDRFSGSGSGTDFTLTISRLEPEDFAVYYCQQGQVIPPTFGQGTKVEIK
light: B3 light
notes: 28H1 VH and VL fused to the C-termini of the knob and hole heavy chains; also called CD40 × FAP 4 + 1; huCD40-28H1
As for B5, in assay [2], the midpoint of the response, the EC50, lay at 47.1 nM. Also, the binding result in assay [3] was “binds”.

For orientation: koff means the first-order rate constant of dissociation. By kon is commonly meant a measure of how fast the partners come together. In general, EC50 refers to the concentration needed to bring the measured effect to its halfway point. Lower therefore signals higher potency in that assay. In general, EC50 (read off the curve) refers to the concentration that produces a half-maximal response. Low values mean a more potent agent, high ones a less potent agent.
